In data set [1] the test system is 86 enzyme and receptor targets. In words: Safety pharmacology profiling, enzyme and receptor binding panel (Eurofins Panlabs). The note with it: 2 µM; all targets except progesterone receptor B. The procedure:
The pHLIP ICG enzyme binding assays were performed by Eurofins Panlabs, Inc. according to standard assay protocols. […] The most significant inhibitory effect of pHLIP ICG was observed on progesterone B and was followed by an additional study to identify IC50 values, which were determined by a non-linear least square regression analysis using MathIQTM (ID Business Solutions Ltd., UK). The Ki values were calculated by the equation from Cheng and Prusoff [Cheng, Y., Prusoff, W.H., Biochem. Pharmacol. 22:3099-3108, 1973] using the observed IC50 of pHLIP ICG , the concentration of radioligand employed in the assay, and the historical values for the KD of the ligand (Eurofins Panlabs data). The Hill coefficient (nH), defining the slope of the competitive binding curve, was calculated using MathIQTM. […]

Data set [2] can be described thus: Pharmacokinetics in mice, single i.v. injection. In kind it is in vivo, B6D2F1 mice. The note with it: single i.v. 12.3 mg/kg. As for the experimental part:
The purpose of this study, performed at MSK, was to determine the pharmacokinetic parameters of pHLIP ICG in 3 female B6D2F1 mice following a single i.v. injection of pHLIP ICG at a dose of 12.3 mg/kg. Blood was collected in EDTA tubes at 5, 15, 30 minutes, and 1, 2, 4, 6, 8, 16, and 24 hours post-injection, followed by centrifugation to separate the plasma, and flash frozen. At time of analysis, samples were thawed, extracted, and analyzed via LC-MS as per the validated protocol using pHLIPIS.

A short description of data set [3]: Follow up 7-days repeat i.v. toxicity in male B6D2F1 mice (GLP). The class given is in vivo. The procedure: The purpose of this GLP study performed at MSK was to assess the acute and delayed toxicity on the male reproductive system of mice of a repeat administration of pHLIP ICG at different concentrations. The pHLIP ICG was administered once/day for 7 consecutive days.
Throughout the study, body weights, clinical signs, and histopathology were collected.

A short description of data set [4]: Cardiovascular telemetry study in conscious Beagle dogs (GLP). In kind it is in vivo. The note with it: male dogs, single i.v. bolus 0.072, 0.36, 1.44 mg/kg, up to 24 h post-dose. The procedure: The objective of this GLP study performed at CRL was to evaluate the potential cardiovascular effects of pHLIP ICG in instrumented dogs when administered by i.v. bolus injection using a Latin square design.
Each of the four male dogs received a dose of Reference Item (5 % Ethanol in Phosphate buffered saline (PBS), pH of 7.4 ± 0.2) and three dose levels of pHLIP ICG (0.072, 0.36, and 1.44 mg/kg), with a 7-day washout period between each dose. The dose was administered by i.v. bolus injection at a dose volume of 2.5 mL/kg.
The following cardiovascular parameters were evaluated for all animals from 2 hours prior and up to 24 hours post each dose: systemic blood pressures (systolic, diastolic, mean arterial, and pulse pressure), heart rate, body temperature, and electrocardiographic duration/intervals (PR, QRS, QT, and QTc). Qualitative evaluation of the electrocardiographic waveforms was performed twice prior to each dose (at least 30 minutes apart) and at 5, 15, and 30 minutes, 1, 2, 3, 4, 6, 12, and 24 hours post-dose. Additional evaluations consisted of mortality and clinical observations. There were no mortalities or pHLIP ICG related clinical signs throughout the course of the study.

For data set [5] the following is noted: cited from earlier work. An excerpt: Since pHLIP peptides offer a unique approach to the targeting of a spectrum of tumor subtypes, we were motivated to develop a fluorescent pHLIP candidate in order to improve the surgical resection of tumors guided by fluorescence. After testing a variety of fluorescent dyes with pHLIP peptides, we chose a widely used clinical fluorescent dye, indocyanine green (ICG). In addition to its long record of safety, ICG was chosen to couple to pHLIP peptide as a clinical imaging candidate for two main reasons: first, the fluorescence of pHLIP ICG is enhanced about 20 times when pHLIP tethers ICG t ...

Entries after “also recorded” stand apart in the source; their conditions may differ. Peptide text beside a SMILES is read from it. * marks the point of attachment. X1 = CC1(C)C(/C=C/C=C/C=C/C=C2/N(CCCCCC(=O)NCCN3C(=O)CC(*)C3=O)c3ccc4ccccc4c3C2(C)C)=[N+](CCCCS(=O)(=O)[O-])c2ccc3ccccc3c21

As to `CC(C)C[C@H](NC(=O)[C@H](Cc1ccc(O)cc1)NC(=O)[C@H](C)NC(=O)[C@H](CCCNC(=N)N)NC(=O)[C@H](Cc1c[nH]c2ccccc12)NC(=O)[C@@H]1CCCN1C(=O)[C@H](CC(N)=O)NC(=O)[C@H](CCC(N)=O)NC(=O)[C@H](CC(=O)O)NC(=O)[C@H](CC(=O)O)NC(=O)[C@H](CSC1CC(=O)N(CCNC(=O)CCCCCN2/C(=C/C=C/C=C/C=C/C3=[N+](CCCCS(=O)(=O)[O-])c4ccc5ccccc5c4C3(C)C)C(C)(C)c3c2ccc2ccccc32)C1=O)NC(=O)[C@H](C)N)C(=O)N[C@@H](CC(=O)O)C(=O)N[C@@H](CC(C)C)C(=O)N[C@@H](CC(C)C)C(=O)N[C@@H](Cc1ccccc1)C(=O)N1CCC[C@H]1C(=O)N[C@H](C(=O)N[C@@H](CC(=O)O)C(=O)N[C@H](C(=O)N[C@@H](CC(C)C)C(=O)N[C@@H](CC(C)C)C(=O)N[C@@H](CC(C)C)C(=O)N[C@@H](CC(=O)O)C(=O)N[C@@H](CC(C)C)C(=O)N[C@@H](CC(C)C)C(=O)N[C@@H](Cc1c[nH]c2ccccc12)C(=O)N[C@@H](C)C(=O)O)[C@@H](C)O)[C@@H](C)O` (stereo partly drawn) [pHLIP ICG] (H-AC(X1)DDQNPWRAYLDLLFPTDTLLLDLLWA-OH), the “Inhibitory effect on 86 enzyme and receptor targets” value in data set [1] is on record as “No inhibitory effect was observed”. In addition, in data set [2] (female, B6D2F1, mouse, plasma, iv, mean, read-out: Clearance (Cl) (converted)), the clearance – broadly, the volume of plasma or blood freed of the substance per unit of time – was 0.159 mL/min/kg. Moreover, the half-life in data set [2] (female, B6D2F1, mouse, plasma, iv, mean, read-out: Elimination half-time (T1/2) (converted)) was 3.9 h. The Vd in data set [2] (female, B6D2F1, mouse, plasma, iv, mean, read-out: Volume of distribution (Vz)) is 0.0535 L/kg. Besides, the “Systemic exposure quantifiable up to” value in data set [2] (LC-MS) was “up to 16 hours”. In data set [3] (male B6D2F1 mice, 4.92, 7.38, 12.3 mg/kg/day i.v. for 7 days), the “Toxicity finding, male reproductive system” value is “well tolerated, with no indication of germ cell degeneration or other toxicity to the male reproductive system”. In addition, the NOAEL result in data set [3] (male and female mice, 7 days repeated i.v. administration) was “above 12.3 mg/kg/day”. In addition, the Cardiovascular effects result in data set [4] was “no observable effect on systemic blood pressures, heart rate, body temperature, electrocardiographic intervals; also recorded: no effect on systemic blood pressures, heart rate, body temperature, electrocardiographic intervals, or qualitative ECG parameters”. Further, the “Fluorescence enhancement when tethered to the membrane vs aqueous solution” value in data set [5] is “about 20 times”.

The record behind these values is PMC7591906, “pHLIP ICG for delineation of tumors and blood flow during fluorescence-guided surgery” (Scientific Reports, 2020).
